Experimental data from article PMC7341804.

Target: Arabinosyltransferase B (EmbB) from Mycobacterium smegmatis (Mycobacterium smegmatis) (UniProt Q50395)
Experiment: native MS; EmbB in 0.2 M ammonium acetate pH 6.8 with 0.01% C12E8 detergent; Q-Exactive HF Orbitrap UHMR, HCD 150 V, capillary 300 °C

stoichiometry N: 2
Substance: Arabinosyltransferase B (EmbB) from Mycobacterium smegmatis (from UniProt Q50395 1-1082) (enzyme)
